Here are results for five molecules from patent publication US20240409635A1.

The target in experiment [1] is tyrosine-protein kinase Met (c-Met) on human tumor cells (human) (UniProt P08581). The experiment is described as follows: cell-based or functional assay.
Experiment [2] addresses HER2-BsAb bispecific control antibody (TA1-Fab anti-CD3 x HER2 VHH). The experiment is described as follows: BLI self-interaction, AHQ sensor.
Experiment [3] has as its target EGFR-BsAb bispecific control antibody (TA1-Fab anti-CD3 x EGFR VHH). The experiment can be described thus: BLI self-interaction, AHQ sensor.
The target in experiment [4] is CEA-BsAb bispecific control antibody (TA1-Fab anti-CD3 x CEA VHH). The experiment can be described thus: BLI self-interaction, AHQ sensor.
Experiment [5] has as its target CEA-CAM6-BsAb bispecific control antibody (TA1-Fab anti-CD3 x CEA-CAM6 VHH). The experiment can be described thus: BLI self-interaction, AHQ sensor.

Sequence of tyrosine-protein kinase Met (c-Met) on human tumor cells (human) (P08581 25-1390): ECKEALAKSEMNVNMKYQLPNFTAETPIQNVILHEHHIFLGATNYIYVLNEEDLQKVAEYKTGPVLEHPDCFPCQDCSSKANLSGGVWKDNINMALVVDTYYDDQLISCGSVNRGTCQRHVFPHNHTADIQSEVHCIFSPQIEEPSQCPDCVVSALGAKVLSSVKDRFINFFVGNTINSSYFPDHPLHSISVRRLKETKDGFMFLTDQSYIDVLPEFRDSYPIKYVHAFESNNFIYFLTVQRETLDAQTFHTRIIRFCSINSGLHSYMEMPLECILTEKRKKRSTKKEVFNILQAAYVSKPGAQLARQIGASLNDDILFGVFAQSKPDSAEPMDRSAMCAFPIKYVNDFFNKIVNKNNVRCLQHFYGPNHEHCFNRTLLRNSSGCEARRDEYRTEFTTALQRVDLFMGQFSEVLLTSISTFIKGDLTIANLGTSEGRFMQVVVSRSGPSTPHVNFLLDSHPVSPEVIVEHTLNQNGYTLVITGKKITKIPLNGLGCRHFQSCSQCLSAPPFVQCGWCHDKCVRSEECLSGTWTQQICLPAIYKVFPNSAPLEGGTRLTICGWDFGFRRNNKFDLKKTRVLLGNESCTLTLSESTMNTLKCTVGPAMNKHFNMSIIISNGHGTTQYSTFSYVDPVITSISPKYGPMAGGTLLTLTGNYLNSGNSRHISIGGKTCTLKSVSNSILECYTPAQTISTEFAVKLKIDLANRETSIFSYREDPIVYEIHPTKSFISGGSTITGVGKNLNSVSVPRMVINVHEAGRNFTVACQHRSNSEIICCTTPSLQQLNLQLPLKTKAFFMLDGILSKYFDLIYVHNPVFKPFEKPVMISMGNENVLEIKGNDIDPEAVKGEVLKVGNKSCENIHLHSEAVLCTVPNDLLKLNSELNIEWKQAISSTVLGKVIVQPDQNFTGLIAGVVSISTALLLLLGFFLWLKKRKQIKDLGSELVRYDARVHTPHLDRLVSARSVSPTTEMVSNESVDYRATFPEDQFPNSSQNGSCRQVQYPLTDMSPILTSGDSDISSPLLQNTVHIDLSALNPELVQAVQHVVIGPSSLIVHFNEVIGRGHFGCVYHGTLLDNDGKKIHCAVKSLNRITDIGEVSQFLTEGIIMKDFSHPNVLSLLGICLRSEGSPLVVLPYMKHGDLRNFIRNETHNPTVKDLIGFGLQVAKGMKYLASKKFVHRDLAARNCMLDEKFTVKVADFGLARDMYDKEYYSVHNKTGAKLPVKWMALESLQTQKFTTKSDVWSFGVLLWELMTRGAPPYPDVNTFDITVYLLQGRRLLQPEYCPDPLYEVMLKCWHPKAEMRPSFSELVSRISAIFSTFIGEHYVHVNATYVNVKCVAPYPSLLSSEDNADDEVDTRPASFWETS

B1: c-Met-BsAb bispecific control antibody (anti-CD3 TA1 Fab and c-Met VHH) (bispecific antibody, not shown: a dimerising Fc or GST)
heavy: EVKLLESGGGLVQPKGSLKLSCAASGFTFNTYAMNWVRQAPGKGLEWVARIRSKYNNYATYYADSVKDRFTISRDDSQSILYLQMNNLKTEDTAMYYCVRHGNFGNSYVSWFAYWGQGTLVTVSSASTKGPSVFPLAPCSRSTSESTAALGCLVKDYFPEPVTVSWNSGALTSGVHTFPAVLQSSGLYSLSSVVTVPSSSLGTKTYTCNVDHKPSNTKVDKRV
chain: QVKLEESGGDLVQPGGSLRLSCVGSGSIFSYTAMGWYRQAPGKQRELVATIHSGGNINYADSVKGRFTISRDNTENTVYLQMNSLKPEDTAVYYCWSLLVGPETRYKDFNFWGRGTQVTVSS
light: QAVVTQESALTTSPGETVTLTCRSSTGAVTTSNYANWVQEKPDHLFTGLIGGTNKRAPGVPARFSGSLIGDKAALTITGAQTEDEAIYFCALWYSNLWVFGGGTKVEIKRTVAAPSVFIFPPSDEQLKSGTASVVCLLNNFYPREAKVQWKVDNALQSGNSQESVTEQDSKDSTYSLSSTLTLSKADYEKHKVYACEVTHQGLSSPVTKSFNRGEC
On to B1, for which, in experiment [1], the T cell mediated killing EC50, H-1975 (EGFR+c-Met+) stood at 0.223 pM; the T cell mediated killing EC50, HT-29 (EGFR+c-Met+) stood at 0.518 pM; the T cell mediated killing EC50, OSRC2 (EGFR+++c-Met+) turned out to be 243 pM; the T cell mediated killing EC50, UT33A (EGFR+++c-Met+++) stood at 2.7 pM. In addition, the T cell mediated killing EC50, UT44 (EGFR+++c-Met++) in experiment [1] stood at 0.156 pM.

B2: HER2-BsAb bispecific control antibody (TA1-Fab anti-CD3 x HER2 VHH) (bispecific antibody, human IgG4 S228P, kappa, F234A L235A)
heavy: EVKLLESGGGLVQPKGSLKLSCAASGFTFNTYAMNWVRQAPGKGLEWVARIRSKYNNYATYYADSVKDRFTISRDDSQSILYLQMNNLKTEDTAMYYCVRHGNFGNSYVSWFAYWGQGTLVTVSSASTKGPSVFPLAPCSRSTSESTAALGCLVKDYFPEPVTVSWNSGALTSGVHTFPAVLQSSGLYSLSSVVTVPSSSLGTKTYTCNVDHKPSNTKVDKRVESKYGPPCPPCPAPEAAGGPSVFLFPPKPKDTLMISRTPEVTCVVVDVSQEDPEVQFNWYVDGVEVHNAKTKPREEQFNSTYRVVSVLTVLHQDWLNGKEYKCKVSNKGLPSSIEKTISKAKGQPREPQVYTLPPCQEEMTKNQVSLWCLVKGFYPSDIAVEWESNGQPENNYKTTPPVLDSDGSFFLYSRLTVDKSRWQEGNVFSCSVMHEALHNHYTQKSLSLSL
chain: QVQLVQSGGGLVQAGGSLRLSCAASGRTFSSYAMAWFRQAPGKEREFVAAISWSGANIYVADSVKGRFTISRDNAKDTVYLQMNSLKPEDTAVYYCAVKLGFAPVEERQYDYWGQGTQVTVSSESKYGPPCPPCPAPEAAGGPSVFLFPPKPKDTLMISRTPEVTCVVVDVSQEDPEVQFNWYVDGVEVHNAKTKPREEQFNSTYRVVSVLTVLHQDWLNGKEYKCKVSNKGLPSSIEKTISKAKGQPREPQVCTLPPSQEEMTKNQVSLSCAVKGFYPSDIAVEWESNGQPENNYKTTPPVLDSDGSFFLVSRLTVDKSRWQEGNVFSCSVMHEALHNRFTQKSLSLSL
light: B1 light
In turn, B2 registered a BLI-Response (self-interaction) in experiment [2] of 0.066 nm.

B3: EGFR-BsAb bispecific control antibody (TA1-Fab anti-CD3 x EGFR VHH) (bispecific antibody, human IgG4 S228P, kappa, F234A L235A)
heavy: B2 heavy
chain: QVQLQESGGGSVQAGGSLKLSCAASGRGFSRYAMGWFRQAPGQDREFVATISWTNSTDYADSVKGRFAISRDNAKNTAYLQMNSLKPEDTAVYYCAADKWASSTRSIDYDYWGQGIQVTVSSESKYGPPCPPCPAPEAAGGPSVFLFPPKPKDTLMISRTPEVTCVVVDVSQEDPEVQFNWYVDGVEVHNAKTKPREEQFNSTYRVVSVLTVLHQDWLNGKEYKCKVSNKGLPSSIEKTISKAKGQPREPQVCTLPPSQEEMTKNQVSLSCAVKGFYPSDIAVEWESNGQPENNYKTTPPVLDSDGSFFLVSRLTVDKSRWQEGNVFSCSVMHEALHNRFTQKSLSLSL
light: B1 light
B3 returned a BLI-Response (self-interaction) in experiment [3] of 0.037 nm.

B4: CEA-BsAb bispecific control antibody (TA1-Fab anti-CD3 x CEA VHH) (bispecific antibody, human IgG4 S228P, kappa, F234A L235A)
heavy: B2 heavy
chain: EVQLVESGGGFVQAGESLTLSCTSSTLTFTPYRMAWYRQAPGKQRDLVADISSGDGRTTNYADFAKGRFTISRDNIKNTVFLRMTNLKPEDTAVYYCNTFVSFVGIARSWGQGTQVTVSSESKYGPPCPPCPAPEAAGGPSVFLFPPKPKDTLMISRTPEVTCVVVDVSQEDPEVQFNWYVDGVEVHNAKTKPREEQFNSTYRVVSVLTVLHQDWLNGKEYKCKVSNKGLPSSIEKTISKAKGQPREPQVCTLPPSQEEMTKNQVSLSCAVKGFYPSDIAVEWESNGQPENNYKTTPPVLDSDGSFFLVSRLTVDKSRWQEGNVFSCSVMHEALHNRFTQKSLSLSL
light: B1 light
Turning to B4, the BLI-Response (self-interaction) in experiment [4] turned out to be 0.103 nm.

B5: CEA-CAM6-BsAb bispecific control antibody (TA1-Fab anti-CD3 x CEA-CAM6 VHH) (bispecific antibody, human IgG4 S228P, kappa, F234A L235A)
heavy: B2 heavy
chain: QVKLEESGGGLVQAGGSLRLSCRTSGRTNSVYTMGWFRQAPGKEREFVAQIMWGAGTNTHYADSVKGRFTISRDSAESTVYLQMNSLKPEDTAVYYCAANRGIPIAGRQYDYWGQGTQVTVSSESKYGPPCPPCPAPEAAGGPSVFLFPPKPKDTLMISRTPEVTCVVVDVSQEDPEVQFNWYVDGVEVHNAKTKPREEQFNSTYRVVSVLTVLHQDWLNGKEYKCKVSNKGLPSSIEKTISKAKGQPREPQVCTLPPSQEEMTKNQVSLSCAVKGFYPSDIAVEWESNGQPENNYKTTPPVLDSDGSFFLVSRLTVDKSRWQEGNVFSCSVMHEALHNRFTQKSLSLSL
light: B1 light
B5 returned a BLI-Response (self-interaction) in experiment [5] of 0.045 nm.
